Measured values from publication PMC8360832, “Butyryl/Caproyl-CoA:Acetate CoA-transferase: cloning, expression and characterization of the key enzyme involved in medium-chain fatty acid biosynthesis” (Bioscience Reports, 2021).

Substrate: CCCC(=O)SCCNC(=O)CCNC(=O)[C@H](O)C(C)(C)COP(=O)(O)OP(=O)(O)OC[C@H]1O[C@@H](n2cnc3c(N)ncnc32)[C@H](O)[C@@H]1OP(=O)(O)O
Test: purified protein
Assay type: biochemical, Clostridium tyrobutyricum
Settings: 200 mM sodium acetate, 100 mM potassium phosphate pH 7, 25 °C

B1: BEY8-CoAT (BCoAT) (Clostridium tyrobutyricum DIVETGP) (protein)
chain: MSFEELYKSKVVSADEAVSHIKSGDKIVFGHACAEPQVLLNALVKNKEKYKNVELYHMIPKGETNYAEPGVEKYIHDNSFFTGKGTSEAIQEGRADFIPVFFSEIPRLFKKGYIPVDVALIEVSKPDEHGYCSFGVSNDYIHAGAECAKLVIAEVNENMPRVFGNNFIHVSDIDYIVESSRPVVEMQPSKIGDVEKAIGKYCASLVEDGSTLQLGIGAIPDAVLLFLKDKKDLGIHSEMISDGVVELVKAGVITNKKKTLHPGKIVVTFLMGTKKLYDFIDNNPEVESHPVDYVNNPTVIMKNCKMVCINSCVEIDLMGQICSESIGLKQISGVGGQIDFTRGASMAEDGKSIIAIPSTAAHGKVSRIVPFLNQGAAITTSRNDVHYVITEYGIAQLRGKTLKQRARELIK
notes: full-length, His tag (N-terminal), pET28a, E. coli BL21 (DE3), Ni-NTA; gene 1233 bp, 46 kDa
Km: 370 ± 4.1 µM | kcat: 0.232 ± 0.0117 s⁻¹ | kcat/Km: 628.3 ± 3.33 M⁻¹ s⁻¹
